Results taken from the supplement of paper PMC10126150.
± gives the standard deviation of the averaged measurements.

Tested on: ATP
Experiment: switch fluorescence ratio, 500 uM ATP over buffer (Cy3 cluster intensity, sum of 5 cycles each) (fold (ratio)); higher = stronger signal-on switching upon ATP binding; sequences stand for … in TCGTCGGCAGCGTCAGATGTGTATAAGAGACAGTTTTTTTTTTTTTTTTTTTTTTTTT…TC
Details: aptamer strand: ATP DNA aptamer (quencher-CACCTGGGGGAGTATTGCGGAGGAAGG + anchor), 100 nM annealed; ATP concentration: 500 uM
Method in brief: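 Per cluster, summed Cy3 intensity from the target cycles was divided by that from the buffer cycles to give the fluorescence ratio, then averaged per switch-domain sequence. Clusters outside 100-1000 RFU were excluded. The Cy3-labelled switching-strand clusters, on a modified Illumina MiSeq flow-cell, were annealed to 100 nM quencher-labelled ATP aptamer and imaged in selection buffer, then after 15 min with 500 uM ATP at 22 °C, for five cycles with NaOH stripping and re-annealing between them.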
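Also: ATP exposure 15 min at 22 °C before imaging.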

| Sequence | switch fluorescence ratio |
| --- | --- |
| AATCTCGTGG | 0.995 ± 0.051 |
| TGGGTTAATT | 0.989 ± 0.026 |
| ACAGTATGGT | 1.02 ± 0.029 |
| CATGGTTTTC | 0.962 ± 0.04 |
| CTTGTGCAAG | 1.03 ± 0.024 |
| TGTTGTTGGT | 1.017 ± 0.00011 |
| AGGTTGAAG | 0.976 ± 0.034 |
| AACAGCTGTA | 1.05 ± 0.062 |
| TCTGGGACGT | 0.9824 ± 0.0033 |
| TAACGCTTAA | 1.09 ± 0.033 |
| CGGCATATAG | 1.99 ± 0.2 |
| ACCCGTTGCC | 1.03 ± 0.057 |
| ATATAGGTGG | 0.999 ± 0.026 |
| GAGGGGGCAC | 1.03 ± 0.042 |
| CAGTAAGAAT | 0.9809 ± 0.0019 |
| CCAGATTTTA | 0.992 ± 0.015 |
| TGATGGGAGC | 0.982 ± 0.014 |
| CAGTAAGAGC | 0.935 ± 0.0095 |
| CATTTGGGCC | 0.999 ± 0.017 |
| TGAAAGATTT | 1 ± 0.03 |
| TGGGTGTAGG | 1.007 ± 0.004 |
| AAATCTGGGT | 0.97 ± 0.013 |
| AATGGGATTG | 0.972 ± 0.0096 |
| AGAATGTCGA | 0.968 ± 0.068 |
| CACAGTGAAG | 0.985 ± 0.051 |
| GTTCGACTCC | 1.15 ± 0.014 |

| Sequence | switch fluorescence ratio |
| --- | --- |
| GCCTGCGGGG | 1.04 ± 0.046 |
| ATGGGGGCCA | 0.974 ± 0.019 |
| TTTGGTTTAT | 0.982 ± 0.04 |
| GCGGGTTGCT | 1.25 ± 0.39 |
| TTTTGTCGCG | 0.9735 ± 0.0032 |
| TATAACGGAG | 1.01 ± 0.014 |
| GTAGCATGCC | 1.32 ± 0.088 |
| TTCCCAAATT | 1.19 ± 0.19 |
| GGTTGGGGGC | 0.991 ± 0.025 |
| CGTTTTCCAG | 0.985 ± 0.03 |
| TTTTTTGATA | 0.981 ± 0.022 |
| CAACGAAGTG | 1 ± 0.069 |
| GCTCGGATAA | 1.0306 ± 0.00026 |
| GCTGGGCATT | 0.99173 ± 0.00022 |
| CAGGGGCCGG | 0.978 ± 0.018 |
| TTGGGATTAG | 1.01 ± 0.029 |
| CGGGGTGCGG | 1 ± 0.056 |
| ACCTGACTTG | 1.06 ± 0.014 |
| TTTGGGGTCA | 1 ± 0.016 |
| AGCTGGAGGT | 0.992 ± 0.026 |
| GGCTTTGTCC | 0.991 ± 0.032 |
| GTGACAGGGG | 1.05 ± 0.033 |
| CTGCTAGACC | 1.21 ± 0.036 |
| ATATTCAGTA | 1 ± 0.015 |
| GCTTTTTTTT | 1.01 ± 0.019 |
| AAACCGGGCA | 1.22 ± 0.22 |

| Sequence | switch fluorescence ratio |
| --- | --- |
| CGCACTTCTG | 1.02 ± 0.024 |
| TCACGGGGTT | 1.01 ± 0.039 |
| GCGGGGCTTA | 0.98878 ± 0.00093 |
| TCAAGTAAAG | 1.14 ± 0.23 |
| GGGTCCGAAT | 1.02 ± 0.016 |
| CGGTTGCGTT | 0.987 ± 0.035 |
| CGTTAATTCG | 1 ± 0.028 |
| CATTGATATG | 0.9912 ± 0.0091 |
| TTTCGTGCCT | 1.065 ± 0.0026 |
| AGGACGGGGA | 0.99 ± 0.019 |
| GCGGTACTGC | 0.999 ± 0.019 |
| GGTAGCTAAG | 1 ± 0.034 |
| TTGACGGGGG | 1.01 ± 0.03 |
| AGATAGAAGG | 0.995 ± 0.012 |
| TTCTTTGTTT | 1.01 ± 0.024 |
| AACGCAGGAG | 1.48 ± 0.025 |
| GATGGAGGAG | 1.03 ± 0.027 |
| AGGAGGCGTT | 0.992 ± 0.029 |
| TTGCTTTTAA | 0.991 ± 0.013 |
| GTTATATGTT | 1 ± 0.03 |
| GGGGTGGGTG | 1.03 ± 0.039 |
| TAAGGGCGGT | 0.957 ± 0.032 |
| TGAAGGGGGG | 0.984 ± 0.034 |
| TTTATATTAA | 1.03 ± 0.049 |
| CAATAGGCGC | 1.01 ± 0.021 |
| GTGGGTGGGT | 1 ± 0.025 |

| Sequence | switch fluorescence ratio |
| --- | --- |
| AGAATTGGCA | 1 ± 0.037 |
| TTTAAATAAC | 1.02 ± 0.029 |
| GAAGTATGGT | 1.01 ± 0.031 |
| GCCGTGAGAG | 0.9842 ± 0.0013 |
| GTGGGAATTT | 0.9823 ± 0.0081 |
| AGGGGCTGCG | 0.938 ± 0.029 |
| ATATAGCACG | 1.02 ± 0.033 |
| TGAGGTTGAG | 1.03 ± 0.059 |
| TGGTTGGTC | 0.965 ± 0.039 |
| ACGGGGTCAG | 0.999 ± 0.026 |
| ACGCGACACC | 1.25 ± 0.058 |
| ATCTTGGGGC | 0.984 ± 0.023 |
| GCACAATTAG | 1.04 ± 0.0071 |
| TAATTTTTGC | 1.02 ± 0.043 |
| GCGGTTGCTG | 0.954 ± 0.04 |
| CGGGTAGTGC | 1.028 ± 0.0078 |
| TTATGCTTTT | 1.0043 ± 0.00054 |
| TTATTCTGTT | 0.976 ± 0.047 |
| AATACGGTCT | 1 ± 0.06 |
| TAAATTGCTT | 0.991 ± 0.012 |
| TTTTGATTTC | 1.02 ± 0.039 |
| TGTAAAAAGC | 1.018 ± 0.0059 |
| TAAGAAAAGT | 0.9745 ± 0.0014 |
| TGCATTTGGA | 0.978 ± 0.015 |
| CGCTTTGGTT | 1.04 ± 0.012 |
| TCGGGAGTGG | 0.9905 ± 0.0016 |

| Sequence | switch fluorescence ratio |
| --- | --- |
| AAAGTCTGGA | 1.028 ± 0.01 |
| TGATTGAGAG | 1.016 ± 0.0025 |
| TTTAGGCCAT | 1.017 ± 0.01 |
| ACTTTAGCAG | 1.034 ± 0.0063 |
| AGGATTAACA | 1.05 ± 0.013 |
| CCTGTGCAGG | 1.11 ± 0.02 |
| TTGTTGAGGG | 1.014 ± 0.0042 |
| CTTGGGTTTT | 0.9548 ± 0.0091 |
| GGTGATTTGT | 1 ± 0.03 |
| ATACCCAAGC | 1.09 ± 0.011 |
| TGAGTTATGG | 0.968 ± 0.03 |
| TTGAAAAAAT | 1.06 ± 0.13 |
| AGCCCGCCGG | 1.03 ± 0.031 |
| TTCTGTTGAC | 1.7 ± 0.95 |
| TAAAAAGGAC | 0.9809 ± 0.008 |
| GGTTGGAGGT | 0.971 ± 0.019 |
| CATTGCGAGG | 1.02 ± 0.039 |
| GTATGGGTGT | 0.9711 ± 0.0078 |
| TGAGAAATGG | 1.02 ± 0.036 |
| TTGAAGTTAT | 0.9897 ± 0.0021 |
| TTTTGCTGAC | 1.14 ± 0.1 |
| CGGGCTCAAC | 1.033 ± 0.0071 |
| AAGCCAGTGG | 1.014 ± 0.0035 |
| ATGGCAGGCA | 0.9929 ± 0.0054 |
| TTTTAGGAGT | 0.989 ± 0.037 |
| TTTTCTCCGT | 1.3 ± 0.43 |

| Sequence | switch fluorescence ratio |
| --- | --- |
| GGGGGTGACA | 0.9931 ± 0.0073 |
| CGAGGGGCCA | 1 ± 0.027 |
| GAGTCCGCCT | 1.6 ± 0.093 |
| GTTTGCCAGG | 1.01 ± 0.013 |
| AGGCACTTTT | 1.04 ± 0.015 |
| CGGTTGTCGA | 1.01 ± 0.023 |
| GAGAGGAAAT | 1.004 ± 0.0059 |
| TTGAGTGAAA | 0.999 ± 0.0017 |
| GGTGTGCCGT | 0.989 ± 0.1 |
| TTTAAATTCG | 1.01 ± 0.014 |
| TAGTTCGCTT | 1.003 ± 0.0067 |
| AAAAAAGGAT | 1.024 ± 0.0086 |
| GCGGTATGGG | 0.9645 ± 0.0046 |
| CCTAATGCCG | 0.996 ± 0.04 |
| GAGAGTGACA | 1.01 ± 0.062 |
| AGATTTTTCG | 1.04 ± 0.024 |
| TTCGCTACGT | 1.02 ± 0.021 |
| ACTTTGGCGT | 1.03 ± 0.014 |
| ACCATGGGCT | 0.974 ± 0.038 |
| TTTAAGCAAG | 1.062 ± 0.0077 |
| TCCAATTGCG | 0.953 ± 0.021 |
| AACTTTCCGA | 2.36 ± 0.39 |
| AAAATATGG | 0.997 ± 0.031 |
